Laboratory results: US9120862 (AbbVie / Abbott, dated 2015)
Bridge positions count the residues as written; N and C are the ends. Ends that are not written are not given here.

T1: Alexa-488 labeled PIVKA-II Gla domain peptide (13-27) (human, disulfide 5-10 (inferred); also: labelled with Alexa Fluor 488 TFP ester, site not given here)
T1 construct: also called Alexa488-PIVKA-II (13-27); Alexa488-PIVKA-II peptide (13-27 cyc)
T1 peptide: LERECVEETCSYEEA

B1: monoclonal antibody 3C10 (produced by hybridoma cell line ATCC deposit designation PTA-9638) (antibody, V domains shown)
VH: EVQLVESGGDLVKPGGSLKLSCAASGFTFSSYGMSWVRQTPDKRLEWVATISRGGSSTYYPDSVKGRFTISRDNAKNNLYLQMSSLKSEDTAMYYCASLNYGNFFDYWGQGTTLTVSS
VL: DVVMTQTPLSLPVSLGDQASISCRSSQSLVHSNGNTYLHWYLQKPGQSPKLLIYKVSNRFSGVPDRFSGSGSGTDFTLKISRVEAEDLGVYFCSQNRHVPPTFGGGTKLEIKR

Target: B1
Experiment: FCS competition: 2 nM Alexa488-PIVKA-II (13-27) premixed with 10 nM mAb 3C10, analog peptide added, overnight; D of the tracer (high D = tracer displaced)

First: LERECKEEQCSFEEA (disulfide 5-10 (inferred)) [13-27 Gla domain PIVKA Factor VII peptide]
Second: LERECIEELCNKEEA (disulfide 5-10 (inferred)) [13-27 Gla domain PIVKA Protein S peptide]
The “Apparent Diffusion Coefficient (D)” value of the first is lower: 49 um^2/sec for the first, 50 um^2/sec for the second.

Going from LEKECYEEICVYEEA (disulfide 5-10 (inferred)) [13-27 Gla domain PIVKA Protein Z peptide] to LERECMEETCSYEEA (disulfide 5-10 (inferred)) [13-27 Gla domain PIVKA Factor X peptide], the “Apparent Diffusion Coefficient (D)” value rises from 51 um^2/sec to 52 um^2/sec.

Compared with LERECIEEICDFEEA (disulfide 5-10 (inferred)) [13-27 Gla domain PIVKA Protein C peptide], LERECMEEKCSFEEA (disulfide 5-10 (inferred)) [13-27 Gla domain PIVKA IX peptide] is lower in “Apparent Diffusion Coefficient (D)” value: 53 um^2/sec for the first, 48 um^2/sec for the second.

Target: T1, Alexa-488 labeled PIVKA-II Gla domain …
Experiment: fluorescence quenching titration: BHQ-labelled mAb 3C10 titrated against 0.05 nM Alexa488 PIVKA-II peptide (13-27)

For B1, the “EC50 (read off the curve)” value was roughly 0.1 nM.
